According to patent publication US20100011462A1, “FLAVIN MONOOXYGENASES AND TRANSCRIPTION FACTORS INVOLVED IN GLUCOSINOLATE BIOSYNTHESIS” (University of Copenhagen, priority 2006, published 2010):

T1: At1g65860 (Arabidopsis thaliana, UniProt Q9SS04)
T1 construct: (AT1G65860) mRNA, complete cds; made in house; host or cells: E. coli TOP10, arabinose-induced pBAD-TOPO; crude spheroplast preparation, 50 ug total protein
T1 sequence (Q9SS04 1-459): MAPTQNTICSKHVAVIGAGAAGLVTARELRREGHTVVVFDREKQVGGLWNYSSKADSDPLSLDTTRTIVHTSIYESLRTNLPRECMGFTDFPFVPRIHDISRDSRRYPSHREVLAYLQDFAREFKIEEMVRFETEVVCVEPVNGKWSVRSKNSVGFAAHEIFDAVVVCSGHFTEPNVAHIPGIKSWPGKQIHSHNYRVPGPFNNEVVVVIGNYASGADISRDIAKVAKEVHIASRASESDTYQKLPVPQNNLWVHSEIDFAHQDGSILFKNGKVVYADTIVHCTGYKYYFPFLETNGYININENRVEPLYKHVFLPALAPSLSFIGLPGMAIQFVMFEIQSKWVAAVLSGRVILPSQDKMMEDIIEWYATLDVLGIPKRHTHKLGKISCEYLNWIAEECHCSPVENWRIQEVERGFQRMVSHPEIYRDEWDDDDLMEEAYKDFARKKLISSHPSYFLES


Experiments:
[1] = target: T1, At1g65860; assay: Enzymatic activity of heterologously expressed At1g65860 in E. coli spheroplasts; format: biochemical; settings: 1 hour at 30° C.; for oxygenation on the sulfur: tested as substrates at 0.1 mM, 1 mM and 10 mM
Experimental: FIG. 3—Enzymatic activity of heterologously expressed At1g65860 in E. coli spheroplasts using the arabinose inducible pBad TOPO® TA Expression system (Invitrogen). 50 μg total E. coli protein were used for each assay and allowed to proceed for 1 hour at 30° C. 4-methylsulfinylbutyl glucosinolate and desulfo-methylsulfinylbutyl glucosinolate production were quantified by HPLC (monitored at 229 nm). Compound identities were confirmed by comparison of both retention times, UV light absorption profiles and mass by LC/MS with those of authentic standards.
At1g65860 pBAD-TOPO constructs and a vector control (empty pBAD-TOPO) were transformed into the E. coli strain TOP10 (Invitrogen). Single colonies were grown overnight in Luria broth (LB) with 100 μg/ml ampicillin. One milliliter of the overnight culture was used to inoculate 100 ml of LB medium supplemented with 100 μg/ml ampicillin and the culture was grown at 37° C., 250 rpm to OD600=0.5, at which time arabinose (final conc. 0.02%) was added. The culture was grown at 28° C., 250 rpm for 16 h.
Following arabinose induction, spheroplasts of E. coli cells were prepared. The culture was chilled on ice, pelleted at 2500 g for 10 min, followed by resuspension by sequential addition of 8.3 ml 200 mM Tris/HCl, pH 7.6, 1.42 g sucrose, 16.7 μL […], 41.7 μL 0.1M phenylmethylsulfonyl fluoride, 33.3 μL lysozyme (50 mg/ml) and finally 8.31 mL ice-cold water with slow stirring. After 30 min incubation at 4° C. with slow stirring, 166 μL 1M Mg(OAc)2 was added and membranes were pelleted at 3000 g for 10 min at 4° C. Pellet was resuspended in 1800 μL 10 mM Tris/HCl pH 7.6/14 mM Mg(OAc)2/60 mM KOAc. The suspension was homogenized in a Potter-Elvehjem followed by the addition of 5 μL RNAse (10 mg/ml) and 5 μL DNAse (5 mg/ml) and slowly stirred for 30 min at 4° C. 235 μL 87% glycerol was added and the spheroplasts were stored at −80° C. for several weeks without loss of activity.
The 100 ul assay solution contained substrate and spheroplasts corresponding to 50 ug total E. coli protein in a 0.1 M Tricine at pH 7.9, 0.25 mM NADPH buffer. The reaction was allowed to proceed for 1 hour at 30° C. and terminated by the addition of 100 μL methanol and centrifuged at 5000 g for 2 min. The supernatant was moved to new tubes followed by lyophilization to dryness and finally redissolved in 50 μL water.
4-methylthiobutyl glucosinolate and desulfo 4-methylthiobutyl glucosinolate were used as substrates with final concentrations in the assay as given in FIG. 3. 4-methylthiobutyl oxime, dihomomethionine, methionine were tested as substrates at 0.1 mM, 1 mM and 10 mM final concentrations. […]

[2] = Activity of FMOs of the invention in E. coli or in seeds using a variety of substrates; format: biochemical, Arabidopsis thaliana; settings: for S-oxygenation activity: desulfo and intact glucosinolates; for substrate specificity: methylthio glucosinolates in Arabidopsis
Source text: FIG. 11—Heterologous expression of At1g62560 in E. coli using 4MTB as substrate, with an empty vector as control.
FIG. 13—Heterologous expression of At1g62540 in E. coli using 4MTB as substrate, with an empty vector as control.
FIG. 15—Heterologous expression of At1g12140 in E. coli using desulfo-glucosinolates from glucosinolates from Arabidopsis Col-0 seeds as substrate mix.
FIG. 17—Heterologous expression of At1g62570 in E. coli using desulfo-glucosinolates from glucosinolates from Arabidopsis Col-0 seeds as substrate mix, with an empty vector as control.
FIGS. 11-18 show the activity of At1g62560, At1g65860, At1g62540, At1g12140 and At1g62570 in E. coli or in seeds using a variety of substrates.

Row | Molecule | oxygenation on the sulfur [1] | production of 4MSB from 4MTB ([1]; 50 μg total E. coli protein, HPLC 229 nm) | S-oxygenation activity [2] | substrate specificity [2]
1 | CSCCCC/C=N\O [4-methylthiobutyl oxime] | No oxygenation on the sulfur | – | – | –
2 | CSCCCC/C(=N/OS(=O)(=O)O)S[C@@H]1O[C@H](CO)[C@@H](O)[C@H](O)[C@H]1O [4MTB, 4-methylthiobutyl glucosinolate] | – | production of 4MSB from 4MTB | – | –
3 | CSCCCCC(N)C(=O)O (stereo not shown) [dihomomethionine] | No oxygenation on the sulfur | – | – | –
4 | CSCC[C@H](N)C(=O)O [methionine] | No oxygenation on the sulfur | – | – | –
5 | At1g12140: flavin-containing monooxygenase (FMO) from A. thaliana, SEQ ID NO 10 (protein, listed as Arabidopsis thaliana) MAPARTRVNSLNVAVIGAGAAGLVAARELRRENHTVVVFERDSKVGGLWVYTPNSEPDPLSLDPNRTIVHSSVYDSLRTNLPRECMGYRDFPFVPRPEDDESRDSRRYPSHREVLAYLEDFAREFKLVEMVRFKTEVVLVEPEDKKWRVQSKNSDGISKDEIFDAVVVCNGHYTEPRVAHVPGIDSWPGKQIHSHNYRVPDQFKDQVVVVIGNFASGADISRDITGVAKEVHIASRSNPSKTYSKLPGSNNLWLHSMIESVHEDGTIVFQNGKVVQADTIVHCTGYKYHFPFLNTNGYITVEDNCVGPLYEHVFPPALAPGLSFIGLPWMTLQFFMFELQSKWVAAALSGRVTLPSEEKMMEDVTAYYAKREAFGQPKRYTHRLGGGQVDYLNWIAEQIGAPPGEQWRYQEINGGYYRLATQSDTFRDKWDDDHLIVEAYEDFLRQKLISSLPSQLLES | – | – | S-oxygenation activity | mainly converts long-chain (especially octyl)methylthioalkyl-into methylsulfinyl glucosinolates
6 | At1g62570: flavin-containing monooxygenase (FMO) from A. thaliana, SEQ ID NO 6 (protein, listed as Arabidopsis thaliana) MAPAPSPINSQHVAVIGAGAAGLVAARELRREGHTVVVLDREKQVGGLWVYTPETESDELGLDPTRPIVHSSVYKSLRTNLPRECMGYKDFPFVPRGDDPSRDSRRYPSHREVLAYLQDFATEFNIEEMIRFETEVLRVEPVNGKWRVQSKTGGGFSNDEIYDAVVMCCGHFAEPNIAQIPGIESWPGRQTHSHSYRVPDPFKDEVVVVIGNFASGADISRDISKVAKEVHIASRASKSNTFEKRPVPNNNLWMHSEIDTAHEDGTIVFKNGKVVHADTIVHCTGYKYYFPFLETNNYMRVDDNRVEPLYKHIFPPALAPGLSFIGLPAMGLQFYMFEVQSKWVAAVLSGRVTLPSVDEMMDDLKLSYETQEALGIPKRYTHKLGKSQCEYLDWIADLCGFPHVEHWRDQEVTRGYQRLGNQPETFRDEWDDDDLMEEAYEDFARLNLINFHPSRFLESGR | – | – | S-oxygenation activity | broad specificity towards all methylthio (MT) glucosinolates
7 | At1g62540: flavin-containing monooxygenase (FMO) from A. thaliana, SEQ ID NO 8 (protein, listed as Arabidopsis thaliana) MAPAQNPISSQHVVVIGAGAAGLVAARELSREGHTVVVLEREKEVGGLWIYSPKAESDPLSLDPTRSIVHSSVYESLRTNLPRECMGFTDFPFVPRFDDESRDSRRYPSHMEVLAYLQDFAREFNLEEMVRFEIEVVRVEPVNGKWRVWSKTSGGVSHDEIFDAVVVCSGHYTEPNVAHIPGIKSWPGKQIHSHNYRVPGPFENEVVVVIGNFASGADISRDIAKVAKEVHIASRASEFDTYEKLPVPRNNLWIHSEIDTAYEDGSIVFKNGKVVYADSIVYCTGYKYRFTFLETNGYMNIDENRVEHLYKHVFPPALSPGLSFVGLPSMGIQFVMFEIQSKWVAAVLSRRVTLPTEDKMMEDISAWYASLDAVGIPKRYTHKLGKIQSEYLNWVAEECGCPLVEHWRNQQIVRGYQRLVSHPETYRDEWDDNDLMEEAYEDFARKKLISFHPSHIL | – | – | S-oxygenation activity | broad specificity towards all methylthio (MT) glucosinolates
